From PMC5567992

Legend:
[1] = molecular target: CNTNW^N149L (Neisseria wadsworthii); experiment: crystal structure
[2] = molecular target: CNTNW^N149L, SeMet labelled (Neisseria wadsworthii); experiment: crystal structure
[3] = molecular target: CNTNW^N149S,E332A (Neisseria wadsworthii); experiment: crystal structure
[4] = molecular target: CNTNW^N149S,F366A (Neisseria wadsworthii); experiment: crystal structure
[5] = molecular target: MBP-CNTNW^T243C,C364S,A373C (inward-facing cross-linking mutant) (Neisseria wadsworthii); experiment: cross-linking
[6] = molecular target: MBP-CNTNW^T243C,C364S,K388C (outward-facing cross-linking mutant) (Neisseria wadsworthii); experiment: cross-linking
[7] = molecular target: concentrative nucleoside transporter from Neisseria wadsworthii (CNTNW), wild type (Neisseria wadsworthii); experiment: crystal structure

CNTNW^N149L (natural protein)
stoichiometry N [1]: 3

CNTNW^N149L, SeMet labelled (natural protein)
stoichiometry N [2]: 3

CNTNW^N149S,E332A (natural protein)
stoichiometry N [3]: 3

CNTNW^N149S,F366A (natural protein)
stoichiometry N [4]: 3

MBP-CNTNW^T243C,C364S,A373C (inward-facing cross-linking mutant) (natural protein)
stoichiometry N [5]: 3

MBP-CNTNW^T243C,C364S,K388C (outward-facing cross-linking mutant) (natural protein)
stoichiometry N [6]: 3

concentrative nucleoside transporter from Neisseria wadsworthii (CNTNW), wild type (natural protein)
stoichiometry N [7]: 3
